Results on 1 protein are retold here after PMC5715906 (The Journal of General Physiology, 2017).

The data set concerns the molecule itself. Description: crystal structure.

A word on the stoichiometry N: it is a count of units in the complex or per binding partner.

B1: GLIC E−2′I + I9′A double mutant (receptor)
chain: QDMVSPPPPIADEPLTVNTGIYLIECYSLDDKAETFKVNAFLSLSWKDRRLAFDPVRSGVRVKTYEPEAIWIPEIRFVNVENARDADVVDISVSPDGTVQYLERFSARVLSPLDFRRYPFDSQTLHIYLIVRSVDTRNIVLAVDLEKVGKNDDVFLTGWDIESFTAVVKPANFALEDRLESKLDYQLRISRQYFSYIPNIILPMLFILFISWTAFWSTSYIANVTLVVSTLAAHIAFNILVETNLPKTPYMTYTGAIIFMIYLFYFVAVIEVTVQHYLKVESQPARAASITRASRIAFPVVFLLANIILAFLFFGF
Regarding B1, the “stoichiometry N” value came out at 5.
